Measurements from patent US20100034738A1 (IMMUNOMEDICS, published 2010).
Numbering of substitutions follows the chain as printed. Names and notes keep the numbering of the source.

Legend:
[1] = molecular target: T1, CD20 (human B lymphocyte-restricted differentiation antigen, Bp35) (human) (UniProt P11836); test: flow cytometry, PE-labelled MAb dissociating from Raji cells, without competing veltuzumab-Fab'-NEM
T1 sequence (looked up): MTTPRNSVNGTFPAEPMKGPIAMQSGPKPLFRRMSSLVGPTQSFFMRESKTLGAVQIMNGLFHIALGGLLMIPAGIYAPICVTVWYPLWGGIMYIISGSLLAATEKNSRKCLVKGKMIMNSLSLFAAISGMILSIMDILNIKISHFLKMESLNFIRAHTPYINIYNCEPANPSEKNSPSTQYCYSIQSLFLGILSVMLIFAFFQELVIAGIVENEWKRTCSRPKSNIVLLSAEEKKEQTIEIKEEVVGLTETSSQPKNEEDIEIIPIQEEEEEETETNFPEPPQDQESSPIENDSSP

[2] = molecular target: T1, CD20 (human B lymphocyte-restricted differentiation antigen, Bp35) (human); test: cell-based or functional assay
[3] = molecular target: T2, CD20 (human B lymphocyte-restricted differentiation antigen, Bp35) (human, UniProt P11836 1-297); test: flow cytometry, dissociation of PE-labelled MAb from live Daudi cells at 37 C with excess veltuzumab Fab'-NEM; % T=0 MFI against time, one-phase exponential decay fit [table, column Daudi]
T2 construct: whole, on cells; Endogenous CD20 on lymphoma cell lines; also called cell-surface CD20
T2 sequence (looked up): T1 sequence (looked up)
Experimental: (§1) FIG. 5. […] The off-rate was determined by non-linear regression (one phase exponential decay) and P-values were generated by F-test using GraphPad Prism software.
(§2) Cells (Daudi, Raji, or Ramos) in 0.5 mL of CM (phenol red-free RPMI 1640 media supplemented with 10% FBS) at 1×10⁶ cells/mL were incubated with 5 μg of each PE-labeled MAb at room temperature for 30 min, pelleted at 400×g, washed twice with CM, resuspended in 1.5 mL of CM, and split into two 0.75-mL aliquots. […] Subsequent measurements were taken at 30-min intervals. The percent maximal binding, which is the quotient of the MFI at T=X divided by that at T=0, was plotted against time, and the results analyzed by Prism software (GraphPad Software Inc., San Diego, Calif.) to yield the half-life or off-rates.

anti-idiotype antibodies = test: binding of radioiodinated MAb to anti-idiotype antibodies
[4] = molecular target: T2, CD20 (human B lymphocyte-restricted …); test: flow cytometry off-rate on lymphoma cells, with or without a competitive binder (summary of Example 5)
Experimental: as §2

[5] = molecular target: T2, CD20 (human B lymphocyte-restricted …); test: flow cytometry, dissociation of PE-labelled MAb from live Ramos cells at 37 C with excess veltuzumab Fab'-NEM; % T=0 MFI against time, one-phase exponential decay fit [table, column Ramos]
Experimental: as §1, §2

[6] = molecular target: T2, CD20 (human B lymphocyte-restricted …); test: flow cytometry, dissociation of PE-labelled MAb from live Raji cells (exp 2) at 37 C with excess veltuzumab Fab'-NEM; % T=0 MFI against time, one-phase exponential decay fit [table, column Raji (exp 2)]
Experimental: as §2

[7] = molecular target: T2, CD20 (human B lymphocyte-restricted …); test: flow cytometry, dissociation of PE-labelled MAb from live Raji cells (exp 1) at 37 C with excess veltuzumab Fab'-NEM; % T=0 MFI against time, one-phase exponential decay fit [table, column Raji (exp 1)]
Experimental: as §1, §2

[8] = molecular target: T2, CD20 (human B lymphocyte-restricted …); test: direct cell-surface saturation binding of 125I-labelled MAb to Raji cells; non-linear regression, one-site binding model (Prism); one representative of three experiments
Experimental: FIG. 4. […] Bₘₐₓ and Kd were determined by non-linear regression analysis using a one-site binding model with Prism software.
(§3) Raji cells (5×10⁵) were incubated with radioiodinated MAbs in an assay volume of 225 μl, using tissue culture media as diluent, for 1 h at 37° C. or room temperature. Cells then were washed twice with PBS containing 1% horse serum, and cell pellets were counted in a gamma counter. The MAbs were titrated at a 2:3 serial dilution starting with approximately 2×10⁶ cpm/2 μg MAb/tube, run in triplicate. Non-specific binding was measured by including replicate unlabeled MAb.

[9] = molecular target: T2, CD20 (human B lymphocyte-restricted …); test: flow cytometry, PE-labelled MAb dissociating from Daudi, Ramos and Raji cells at 37 C with excess veltuzumab-Fab'-NEM
Experimental: as §2

[10] = molecular target: T2, CD20 (human B lymphocyte-restricted …); test: saturation binding of 125I-labelled MAb to Raji cells, nonlinear regression / Scatchard; apparent KD, replicate assays
Experimental: as §3

[11] = molecular target: T2, CD20 (human B lymphocyte-restricted …); test: flow cytometry, PE-labelled MAb dissociating from Raji cells, without competing veltuzumab-Fab'-NEM
Experimental: as §2

[12] = molecular target: T2, CD20 (human B lymphocyte-restricted …); test: flow cytometry, PE-labelled MAb dissociating from Raji cells at 37 C with excess veltuzumab-Fab'-NEM
Experimental: as §2

In the case of “1F5, murine anti-CD20 monoclonal antibody”, the dissociation half-life [1] is reported as 195 min.

B1: V102Y, variant of hA20 with Val to Tyr at Kabat position 102 in the CDR3 of VH (antibody, name in Kabat numbering, V domains shown)
VH: QVQLQQSGAEVKKPGSSVKVSCKASGYTFTSYNMHWVKQAPGQGLEWIGAIYPGNGDTSYNQKFKGKATLTADESTNTAYMELSSLRSEDTAFYYCARSTYYGGDWYFDYWGQGTTVTVSS
VL: DIQLTQSPSSLSASVGDRVTMTCRASSSVSYIHWFQQKPGKAPKPWIYATSNLASGVPVRFSGSGSGTDYTFTISSLQPEDIATYYCQQWTSNPPTFGGGTKLEIK
For B1, the ADCC (% lysis), Daudi targets, Donor 001 [2] was 47.5 % lysis, the ADCC (% lysis), Daudi targets, Donor 006 [2] was 24.2 % lysis and the ADCC (% lysis), Daudi targets, Donor 009 [2] was 33.4 % lysis.

B2: YDE, Fc variant of V102Y with S239D and I332E in the CH2 domain (antibody, name in Kabat numbering, V domains shown)
VH: B1 VH
VL: B1 VL
B2 gave an ADCC (% lysis), Daudi targets, Donor 001 [2] of 58.3 % lysis, an ADCC (% lysis), Daudi targets, Donor 006 [2] of 31.5 % lysis and an ADCC (% lysis), Daudi targets, Donor 009 [2] of 54.5 % lysis.

B3: veltuzumab (hA20), humanized anti-CD20 antibody (antibody, V domains shown)
VH: B1 VH with Y110V
VL: B1 VL
notes: It was 125I-labelled in the Scatchard assay and PE-labelled (Zenon kit) in the off-rate assay; also called v-mab; Vmab
For B3, the “Dissociation Rates (T 1/2 Min)” value [3] was 54.4 min, the immunoreactivity (anti-idiotype antibodies) was greater than 90% and the “off-rate, fold slower than rituximab or D101N” value [4] was roughly 2.5 fold. For the same molecule, the “Dissociation Rates (T 1/2 Min)” value [5] was 57 min, the “Dissociation Rates (T 1/2 Min)” value [6] was 61.8 min and the “Dissociation Rates (T 1/2 Min)” value [7] was 59.1 min. The Kd [8] was 10.8 nM, the “dissociation half-life, fold longer than rituximab” value [9] was 2.7 fold and the Kd [10] was 6.23 to 12 nM. For the same molecule, the dissociation half-life [11] was 281 min.

B4: D101N, mutant of veltuzumab with Asp to Asn at Kabat position 101 in CDRH3 (antibody, name in Kabat numbering, V domains shown)
VH: B1 VH with D109N, Y110V
VL: B1 VL
notes: Same CDRs as rituximab and identical FRs to veltuzumab; also called D101N-hA20
With B4 the “off-rate, fold faster than rituximab” value [12] was 2 fold, the “off-rate, fold faster than veltuzumab” value [12] was 6 fold and the “Dissociation Rates (T 1/2 Min)” value [6] was 9.4 min. The dissociation half-life [11] was 42 min.

B5: rituximab (chimeric anti-CD20, c2B8) (antibody, V domains shown)
VH: QVQLQQPGAELVKPGASVKMSCKASGYTFTSYNMHWVKQTPGRGLEWIGAIYPGNGDTSYNQKFKGKATLTADKSSSTAYMQLSSLTSEDSAVYYCARSTYYGGDWYFNVWGQGTTVTVSS
VL: QIVLSQSPAILSASPGEKVTMTCRASSSVSYIHWFQQKPGSSPKPWIYATSNLASGVPVRFSGSGSGTSYSLTISRVEAEDAATYYCQQWTSNPPTFGGGTK
notes: Commercial chimeric antibody; also called IDEC-c2B8; Rmab
B5 was tested, and the “Dissociation Rates (T 1/2 Min)” value [3] was 20.1 min, the “Dissociation Rates (T 1/2 Min)” value [5] was 19 min and the “Dissociation Rates (T 1/2 Min)” value [6] was 21.4 min. The “Dissociation Rates (T 1/2 Min)” value [7] was 24.3 min, the Kd [8] was 8.62 nM and the Kd [10] was 6.7 to 8.63 nM. For the same molecule, the dissociation half-life [11] was 94 min.

B6: cA20, chimeric anti-CD20 antibody (antibody, V domains shown)
VH: B5 VH with N109D
VL: DIQLTQSPAILSASPGEKVTMTCRASSSVSYIHWFQQKPGSSPKPWIYATSNLASGVPVRFSGSGSGTSYSLTISRVEAEDAATYYCQQWTSNPPTFGGGTKLEIK
B6 was tested, and the “Dissociation Rates (T 1/2 Min)” value [3] was 58.8 min, the “off-rate, fold slower than rituximab or D101N” value [4] was roughly 2.5 fold and the “Dissociation Rates (T 1/2 Min)” value [5] was 54.8 min. For the same molecule, the “Dissociation Rates (T 1/2 Min)” value [7] was 62 min.
